Assay results reported in US20240067706A1 (published 2024).

Key:
Assay in all cases: BLI
[1] = target: T1, MERS-CoV S protein (soluble, purified in vitro) (MERS-CoV, UniProt K9N5Q8 18-1297)
T1 chain: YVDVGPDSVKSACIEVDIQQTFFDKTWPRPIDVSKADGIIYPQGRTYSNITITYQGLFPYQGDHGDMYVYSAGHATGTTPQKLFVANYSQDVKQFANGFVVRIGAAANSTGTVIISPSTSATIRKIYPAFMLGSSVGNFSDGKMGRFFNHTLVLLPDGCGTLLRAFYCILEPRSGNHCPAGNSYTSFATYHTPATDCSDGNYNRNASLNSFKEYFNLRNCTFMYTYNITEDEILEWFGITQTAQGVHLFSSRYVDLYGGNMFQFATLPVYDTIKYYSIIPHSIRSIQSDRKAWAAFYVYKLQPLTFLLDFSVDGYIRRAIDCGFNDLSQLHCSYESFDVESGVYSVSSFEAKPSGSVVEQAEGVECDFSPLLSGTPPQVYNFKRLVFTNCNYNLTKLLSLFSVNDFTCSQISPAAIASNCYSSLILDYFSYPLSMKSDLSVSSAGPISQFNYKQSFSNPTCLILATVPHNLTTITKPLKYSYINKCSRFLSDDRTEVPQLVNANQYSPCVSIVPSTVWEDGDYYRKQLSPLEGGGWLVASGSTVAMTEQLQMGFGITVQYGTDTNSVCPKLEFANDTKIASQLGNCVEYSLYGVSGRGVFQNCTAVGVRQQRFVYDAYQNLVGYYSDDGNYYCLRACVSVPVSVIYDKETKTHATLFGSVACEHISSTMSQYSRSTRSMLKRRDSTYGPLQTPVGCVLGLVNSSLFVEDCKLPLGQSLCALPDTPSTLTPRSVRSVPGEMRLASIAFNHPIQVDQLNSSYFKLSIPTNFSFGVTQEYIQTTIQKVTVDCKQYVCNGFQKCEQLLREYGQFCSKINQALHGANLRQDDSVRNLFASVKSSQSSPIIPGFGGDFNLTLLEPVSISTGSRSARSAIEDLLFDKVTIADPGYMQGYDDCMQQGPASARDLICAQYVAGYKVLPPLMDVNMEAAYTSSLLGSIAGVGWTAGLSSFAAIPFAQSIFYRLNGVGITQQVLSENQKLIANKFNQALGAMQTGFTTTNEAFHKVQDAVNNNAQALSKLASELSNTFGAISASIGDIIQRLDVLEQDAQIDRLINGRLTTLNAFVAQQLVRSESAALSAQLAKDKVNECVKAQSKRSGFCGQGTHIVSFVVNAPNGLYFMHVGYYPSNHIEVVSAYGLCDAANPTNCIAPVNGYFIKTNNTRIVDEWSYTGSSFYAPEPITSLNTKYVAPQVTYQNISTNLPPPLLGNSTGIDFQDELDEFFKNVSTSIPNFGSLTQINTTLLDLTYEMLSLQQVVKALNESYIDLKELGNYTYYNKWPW

[2] = target: SARS-CoV-2 S protein (full-length S protein, soluble, purified in vitro) (SARS-CoV-2, UniProt P0DTC2 16-1213)
[3] = target: SARS-CoV S protein (soluble, purified in vitro) (SARS-CoV, UniProt P59594 14-1195)

B1: fully human monoclonal antibody 76E1 (antibody, V domains shown)
VH: EVQLVESGGGVVQPGGSLRLSCEASGFSFKDYGMHWIRQTPGKGLEWISRISGDTRGTSYVDSVKGRFIVSRDNSRNSLFLQMNSLRSEDTALYYCAALVIVAAGDDFDLWGQGTVVTVSS
VL: QSALTQPLSVSGSPGQSVTISCTGSSSDIGSYNFVSWYRQYPGKAPKVMIYEVNKRPSGVPVRFSGSKSGNTASLTVSGLQHEDEADYYCCSYGGRNNLIFGGGTKLTVL
Binder B1 has a Kd [1] of 1.03 nM, a Kd [2] of 0.431 nM and a Kd [3] of 0.107 nM.
